From PMC9652321, “Structural basis of human SNAPc recognizing proximal sequence element of snRNA promoter”

Experiments:
[1] = target: T1, mSNAPc#2 4Mu Y389A;R445A;R151A;W350A (Homo sapiens) (UniProt Q5SXM2+Q92966+Q16533+O75971); test: SPR; conditions: EMSA: 100 mM KCl, 25 mM HEPES-K pH 7.6, 12.5 mM MgCl2, 10 uM ZnCl2, 0.1 mM EDTA, 10% glycerol, 3 mM DTT, 0.5 mM PMSF, 50 nM DNA, RT 30 min; SPR: 100 mM KCl, 12.
T1 sequence 1: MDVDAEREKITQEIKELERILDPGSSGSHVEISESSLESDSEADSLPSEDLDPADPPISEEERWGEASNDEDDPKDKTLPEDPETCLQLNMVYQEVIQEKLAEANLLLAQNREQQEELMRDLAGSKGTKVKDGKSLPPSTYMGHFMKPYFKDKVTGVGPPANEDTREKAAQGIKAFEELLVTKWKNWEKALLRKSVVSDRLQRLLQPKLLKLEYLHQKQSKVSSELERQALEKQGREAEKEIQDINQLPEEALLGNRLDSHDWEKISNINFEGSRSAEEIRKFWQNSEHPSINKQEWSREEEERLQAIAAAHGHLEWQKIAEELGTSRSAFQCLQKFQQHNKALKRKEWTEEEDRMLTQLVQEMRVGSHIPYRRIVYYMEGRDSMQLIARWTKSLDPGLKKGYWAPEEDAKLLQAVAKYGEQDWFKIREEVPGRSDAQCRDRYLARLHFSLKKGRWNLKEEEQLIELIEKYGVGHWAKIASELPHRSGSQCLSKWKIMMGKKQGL
T1 sequence 2: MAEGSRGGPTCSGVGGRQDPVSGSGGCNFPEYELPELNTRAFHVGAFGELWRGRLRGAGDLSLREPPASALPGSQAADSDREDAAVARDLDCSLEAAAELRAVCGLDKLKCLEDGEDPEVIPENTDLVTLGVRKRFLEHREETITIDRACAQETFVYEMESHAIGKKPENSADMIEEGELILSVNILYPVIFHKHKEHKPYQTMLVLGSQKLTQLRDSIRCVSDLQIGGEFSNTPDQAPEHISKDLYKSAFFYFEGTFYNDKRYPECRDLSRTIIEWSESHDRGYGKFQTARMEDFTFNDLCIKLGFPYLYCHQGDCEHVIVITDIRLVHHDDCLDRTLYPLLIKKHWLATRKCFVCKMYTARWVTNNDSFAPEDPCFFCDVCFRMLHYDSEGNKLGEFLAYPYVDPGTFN
T1 sequence 3: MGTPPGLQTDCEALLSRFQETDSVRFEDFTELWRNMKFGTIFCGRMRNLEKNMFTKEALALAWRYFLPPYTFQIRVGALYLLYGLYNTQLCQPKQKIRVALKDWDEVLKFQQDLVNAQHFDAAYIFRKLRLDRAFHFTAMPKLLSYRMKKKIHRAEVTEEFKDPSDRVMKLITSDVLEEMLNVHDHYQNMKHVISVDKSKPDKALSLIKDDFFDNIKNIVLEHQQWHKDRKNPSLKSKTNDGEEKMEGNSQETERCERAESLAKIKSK
T1 sequence 4: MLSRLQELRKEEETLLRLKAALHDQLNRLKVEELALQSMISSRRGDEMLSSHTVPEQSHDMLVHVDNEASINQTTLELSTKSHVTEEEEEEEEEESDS

[2] = target: T2, mSNAPc#2 5Mu Y389A;R445A;R151A;K194A;W350A (Homo sapiens) (UniProt Q5SXM2+Q92966+Q16533+O75971); test: SPR; conditions: EMSA: 100 mM KCl, 25 mM HEPES-K pH 7.6, 12.5 mM MgCl2, 10 uM ZnCl2, 0.1 mM EDTA, 10% glycerol, 3 mM DTT, 0.5 mM PMSF, 50 nM DNA, RT 30 min; SPR: 100 mM KCl, 12.
T2 sequence 1: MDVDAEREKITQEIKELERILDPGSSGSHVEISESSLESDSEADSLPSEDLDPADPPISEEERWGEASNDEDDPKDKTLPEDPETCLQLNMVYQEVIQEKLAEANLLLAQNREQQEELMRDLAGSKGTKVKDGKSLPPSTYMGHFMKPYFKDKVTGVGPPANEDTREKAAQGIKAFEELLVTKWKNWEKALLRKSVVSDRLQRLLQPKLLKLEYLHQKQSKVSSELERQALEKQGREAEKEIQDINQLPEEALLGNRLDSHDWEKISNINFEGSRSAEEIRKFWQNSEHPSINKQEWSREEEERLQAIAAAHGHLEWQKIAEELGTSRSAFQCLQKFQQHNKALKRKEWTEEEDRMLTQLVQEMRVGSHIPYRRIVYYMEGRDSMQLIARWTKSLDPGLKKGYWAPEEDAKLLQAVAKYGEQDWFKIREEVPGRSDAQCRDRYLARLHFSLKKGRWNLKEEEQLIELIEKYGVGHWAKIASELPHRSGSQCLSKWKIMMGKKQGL
T2 sequence 2: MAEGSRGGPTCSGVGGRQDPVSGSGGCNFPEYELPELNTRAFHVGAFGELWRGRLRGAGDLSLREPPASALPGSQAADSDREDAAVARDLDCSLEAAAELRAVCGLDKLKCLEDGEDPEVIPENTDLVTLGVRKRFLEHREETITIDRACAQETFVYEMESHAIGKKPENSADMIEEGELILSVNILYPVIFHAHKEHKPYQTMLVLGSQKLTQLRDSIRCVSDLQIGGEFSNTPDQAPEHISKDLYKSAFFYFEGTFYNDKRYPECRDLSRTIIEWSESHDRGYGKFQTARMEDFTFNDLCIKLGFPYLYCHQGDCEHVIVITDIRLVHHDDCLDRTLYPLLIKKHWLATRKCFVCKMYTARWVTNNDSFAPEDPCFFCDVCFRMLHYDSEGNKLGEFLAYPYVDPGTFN
T2 sequence 3: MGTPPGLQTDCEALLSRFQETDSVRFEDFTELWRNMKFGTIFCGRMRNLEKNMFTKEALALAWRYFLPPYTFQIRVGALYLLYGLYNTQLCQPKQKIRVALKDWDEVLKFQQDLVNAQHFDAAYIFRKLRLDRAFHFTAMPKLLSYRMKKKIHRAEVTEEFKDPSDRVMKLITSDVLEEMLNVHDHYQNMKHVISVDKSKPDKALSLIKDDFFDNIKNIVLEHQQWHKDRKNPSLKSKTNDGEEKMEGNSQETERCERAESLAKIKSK
T2 sequence 4: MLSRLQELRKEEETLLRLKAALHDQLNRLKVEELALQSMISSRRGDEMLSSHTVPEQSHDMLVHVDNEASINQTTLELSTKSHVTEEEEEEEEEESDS

[3] = target: T3, mSNAPc#2 WT (Homo sapiens, UniProt Q5SXM2;Q92966;Q16533;O75971 1-505;1-411;1-268;1-98); test: EMSA; 200 and 1000 nM protein; EMSA: 100 mM KCl, 25 mM HEPES-K pH 7.6, 12.5 mM MgCl2, 10 uM ZnCl2, 0.1 mM EDTA, 10% glycerol, 3 mM DTT, 0.5 mM PMSF, 50 nM DNA, RT 30 min; SPR: 100 mM KCl, 12.5 mM MgCl2, 10 uM ZnCl2, 0.1 mM EDTA, 0.05% P20, 25 C; conditions: protein: recombinant; tags: FLAG N-term SNAP190; 6xHis N-term SNAP43; copies: 1;1;1;1; label: 5'-FAM
T3 sequence 1: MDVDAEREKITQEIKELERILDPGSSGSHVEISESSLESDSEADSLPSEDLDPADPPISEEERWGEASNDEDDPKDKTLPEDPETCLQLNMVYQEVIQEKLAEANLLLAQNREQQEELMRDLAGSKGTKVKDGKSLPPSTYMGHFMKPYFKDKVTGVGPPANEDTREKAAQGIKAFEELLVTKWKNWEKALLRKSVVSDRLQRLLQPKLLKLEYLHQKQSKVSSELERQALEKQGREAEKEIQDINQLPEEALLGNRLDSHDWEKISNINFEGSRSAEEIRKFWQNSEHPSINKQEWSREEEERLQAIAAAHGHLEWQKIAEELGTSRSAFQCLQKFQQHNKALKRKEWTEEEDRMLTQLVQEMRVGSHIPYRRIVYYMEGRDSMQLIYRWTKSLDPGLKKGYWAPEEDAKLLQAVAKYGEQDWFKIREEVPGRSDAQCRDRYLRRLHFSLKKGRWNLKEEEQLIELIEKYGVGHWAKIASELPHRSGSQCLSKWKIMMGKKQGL
T3 sequence 2: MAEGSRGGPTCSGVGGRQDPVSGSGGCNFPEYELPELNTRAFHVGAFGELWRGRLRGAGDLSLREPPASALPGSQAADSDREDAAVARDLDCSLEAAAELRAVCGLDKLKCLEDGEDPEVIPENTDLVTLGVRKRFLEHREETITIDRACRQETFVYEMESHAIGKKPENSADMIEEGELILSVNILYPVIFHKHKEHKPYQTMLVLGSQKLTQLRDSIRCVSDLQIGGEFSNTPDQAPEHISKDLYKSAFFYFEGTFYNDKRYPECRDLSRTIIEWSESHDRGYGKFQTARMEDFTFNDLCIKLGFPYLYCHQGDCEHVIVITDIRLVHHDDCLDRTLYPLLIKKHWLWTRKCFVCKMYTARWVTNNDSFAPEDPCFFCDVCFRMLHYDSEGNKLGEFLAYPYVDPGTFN
T3 sequence 3: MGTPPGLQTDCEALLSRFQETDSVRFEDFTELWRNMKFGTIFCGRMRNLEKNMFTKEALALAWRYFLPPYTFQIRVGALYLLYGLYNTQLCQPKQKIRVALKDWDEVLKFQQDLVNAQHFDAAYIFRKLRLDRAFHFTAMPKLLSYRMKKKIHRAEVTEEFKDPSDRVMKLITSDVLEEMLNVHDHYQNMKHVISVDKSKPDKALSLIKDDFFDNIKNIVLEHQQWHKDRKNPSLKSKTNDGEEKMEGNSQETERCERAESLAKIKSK
T3 sequence 4: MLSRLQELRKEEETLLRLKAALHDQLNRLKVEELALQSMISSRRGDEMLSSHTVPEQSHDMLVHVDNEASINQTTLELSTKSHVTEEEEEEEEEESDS

[4] = target: T4, mSNAPc#11 (rod module) (Homo sapiens, UniProt Q5SXM2;Q16533;O75971 1-143;148-268;1-98); test: EMSA; 200 and 800 nM protein; EMSA: 100 mM KCl, 25 mM HEPES-K pH 7.6, 12.5 mM MgCl2, 10 uM ZnCl2, 0.1 mM EDTA, 10% glycerol, 3 mM DTT, 0.5 mM PMSF, 50 nM DNA, RT 30 min; SPR: 100 mM KCl, 12.5 mM MgCl2, 10 uM ZnCl2, 0.1 mM EDTA, 0.05% P20, 25 C; conditions: protein: recombinant; tags: Strep SNAP19; MBP SNAP190; MBP N-term SNAP43; copies: 1;1;1; label: 5'-FAM on positive strand (EMSA)
T4 sequence 1: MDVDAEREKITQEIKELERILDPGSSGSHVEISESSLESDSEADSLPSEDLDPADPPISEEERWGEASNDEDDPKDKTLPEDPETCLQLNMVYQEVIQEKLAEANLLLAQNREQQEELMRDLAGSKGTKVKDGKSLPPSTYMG
T4 sequence 2: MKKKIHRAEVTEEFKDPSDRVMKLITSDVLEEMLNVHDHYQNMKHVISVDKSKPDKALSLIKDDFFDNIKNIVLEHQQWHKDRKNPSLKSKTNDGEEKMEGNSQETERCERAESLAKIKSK
T4 sequence 3: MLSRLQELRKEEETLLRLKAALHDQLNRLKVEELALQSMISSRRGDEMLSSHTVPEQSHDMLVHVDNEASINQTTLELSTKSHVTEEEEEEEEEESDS

Q: “TGCTTACCGTAACTTGAAAGTATTT (double strand) [25 bp hU6-1 PSE (SPR)]” was tested. Which Kd [1] did it give?
A: The Kd was 8.91 µM.

Q: And the Kd [2]?
A: The Kd was 49 µM.

B1: PSE 6Sub (dsDNA)
DNA 1: TGCTTACCTGAACTTGCCATCATTT
DNA 2: AAATGATGGCAAGTTCAGGTAAGCA
Q: Does B1 bind [3]?
A: Result: no binding

B2: PSE 8Sub (dsDNA)
DNA 1: TGCTTACATGAACTTCCCATCATTT
DNA 2: AAATGATGGGAAGTTCATGTAAGCA
Q: Does B2 bind [3]?
A: Result: no binding

B3: 25 bp hU6-1 PSE (dsDNA)
DNA 1: TGCTTACCGTAACTTGAAAGTATTT
DNA 2: AAATACTTTCAAGTTACGGTAAGCA
Q: Does B3 bind [4]?
A: Result: no binding
